In test [1] the target is CXCL10 (UniProt P02778). The following applies: cited from earlier work.
Test [2] addresses Secreted Protein, Acidic, Rich in Cysteine (SPARC), recombinant murine (murine) (UniProt P07214). The test is described as follows: MST; Monolith NT.115; 4.5 nM NT-495-labelled SPARC, unlabelled chemokine titrated; Ca-MST buffer (50 mM Tris pH 7.4, 150 mM NaCl, 2 mM CaCl2, 0.05% Tween 20); room temperature; three measurements; thermophoresis plus t-jump.
Test [3] has as its target T1, Secreted Protein, Acidic, Rich in Cysteine (SPARC), recombinant murine (murine, UniProt P07214 18-302, fluorescent label NT-495, covalently linked by NHS coupling (in the thermophoresis only; unlabelled in the gel filtration)).
T1 construct: SPARC, mouse, recombinant; most likely the mature secreted protein; also called recombinant SPARC; source: bought: R&D Systems or Peprotech (recombinant murine)
T1 sequence (looked up): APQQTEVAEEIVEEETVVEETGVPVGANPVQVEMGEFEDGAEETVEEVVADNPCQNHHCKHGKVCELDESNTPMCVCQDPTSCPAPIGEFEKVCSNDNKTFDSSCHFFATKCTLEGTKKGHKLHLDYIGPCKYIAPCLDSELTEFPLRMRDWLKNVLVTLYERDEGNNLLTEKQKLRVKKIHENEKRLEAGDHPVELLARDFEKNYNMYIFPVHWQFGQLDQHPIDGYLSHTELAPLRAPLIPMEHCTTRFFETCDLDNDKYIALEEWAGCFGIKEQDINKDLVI
The description is as above. Conditions: both partners purified.

Turning to CXCL10 (from UniProt P02778), in test [1], the Kd was 9000 nM.

Consider “CCL21, recombinant murine (from UniProt P84444 24-133) (ligand)”, for which the Kd in test [2] was determined as 984 nM.

B1: CCL19, recombinant murine (ligand, UniProt O70460 26-108, looked up)
chain: GANDAEDCCLSVTQRPIPGNIVKAFRYLLNEDGCRVPAVVFTTLRGYQLCAPPDQPWVDRIIRRLKKSSAKNKGNSTRRSPVS
notes: CCL19, mouse, recombinant; Most likely the mature chemokine without its signal peptide; source: bought: R&D Systems or Peprotech (recombinant murine)
As to B1, in test [3], the Kd was determined as 1.9 nM.

Broadly, the Kd is the constant that tells how readily two partners part at equilibrium.

The values above are taken from paper PMC7907143, “SPARC coordinates extracellular matrix remodeling and efficient recruitment to and migration of antigen-specific T cells in the brain following infection” (Scientific Reports, 2021).
